Measured values as given in patent publication US20240209095A1 (DEVELOPMENT CENTER FOR BIOTECHNOLOGY, published 2024).

B1: 3C3 heavy chain M / light chain Hu (antibody, V domains shown)
VH: EVQLQESGPGLTKPSQTLSLTCSVTGYSITSDYWDWIRKFPGNKLEYMGYISYTGSTYYNPSLRSRISITRDTSKNQYYLQLSSVTSEDSATYYCARRGGWLSPFVYWGQGTLVTVSA
VL: DIQMTQSPSSLSASVGDRVTITCKSRQSLLFSSNQKNSLAWYQQKPGKAPKLLIYWASTRESGVPSRFSGSGSGTDFTLTISSLQPEDFATYYCQQYYTYPFTFGQGTKLEIK
notes: Human IgG, kappa, from pTCAED vectors; tested as culture supernatant
B2: mouse-human chimera 3C3 MM (antibody, V domains shown)
VH: EVQLQESGPGLTKPSQTLSLTCSVTGYSITSDYWDWIRKFPGNKLEYMGYISYTGSTYYNPSLRSRISITRDTSKNQYYLQLSSVTSEDSATYYCARRGGWLSPFVYWGQGTLVTVSA
VL: DTVMSQSPSSLGVSVGERVTLTCKSRQSLLFSSNQKNSLAWYQQKPGQSPKLLIYWASTRESGVPDRFTGSGSGTDFTLTISSVKSEDLAVYYCQQYYTYPFTFGAGTSLELK
notes: Variable regions in human chimera antibody expression vectors pTCAED heavy and light; human IgG, kappa (detected with anti-human Kappa); also called 3C3 heavy chain M / light chain M; chimera PD-L1
B3: 3C3 heavy chain M / light chain Hu2 (antibody, V domains shown)
VH: EVQLQESGPGLTKPSQTLSLTCSVTGYSITSDYWDWIRKFPGNKLEYMGYISYTGSTYYNPSLRSRISITRDTSKNQYYLQLSSVTSEDSATYYCARRGGWLSPFVYWGQGTLVTVSA
VL: DIVMTQTPLSLSVTPGQPASISCKSRQSLLFSSNQKNSLAWYLQKPGQSPQLLIYWASTRESGVPDRFSGSGSGTDFTLKISRVEAEDVGVYYCQQYYTYPFTFGQGTKLEIK
notes: as for B1
B4: 3C3 heavy chain Hu-B1 / light chain Hu0 (antibody, V domains shown)
VH: EVQLQESGPGLVKPSQTLSLTCTVSGYSITSDYWDWIRQPPGKGLEWMGYISYTGSTYYNPSLRSRITISRDTSKNQYSLKLSSVTAADTAVYYCARRGGWLSPFVYWGQGTLVTVSS
VL: DIVMTQSPDSLAVSLGERATINCKSRQSLLFSSNQKNSLAWYQQKPGQPPKLLIYWASTRESGVPDRFSGSGSGTDFTLTISSLQAEDVAVYYCQQYYTYPFTFGQGTKLEIK
notes: as for B1
B5: 3C3 heavy chain Hu-B1 / light chain Hu2 (antibody, V domains shown)
VH: EVQLQESGPGLVKPSQTLSLTCTVSGYSITSDYWDWIRQPPGKGLEWMGYISYTGSTYYNPSLRSRITISRDTSKNQYSLKLSSVTAADTAVYYCARRGGWLSPFVYWGQGTLVTVSS
VL: DIVMTQTPLSLSVTPGQPASISCKSRQSLLFSSNQKNSLAWYLQKPGQSPQLLIYWASTRESGVPDRFSGSGSGTDFTLKISRVEAEDVGVYYCQQYYTYPFTFGQGTKLEIK
notes: as for B1
B6: 3C3 heavy chain Hu-B1 / light chain Hu (antibody, V domains shown)
VH: EVQLQESGPGLVKPSQTLSLTCTVSGYSITSDYWDWIRQPPGKGLEWMGYISYTGSTYYNPSLRSRITISRDTSKNQYSLKLSSVTAADTAVYYCARRGGWLSPFVYWGQGTLVTVSS
VL: DIQMTQSPSSLSASVGDRVTITCKSRQSLLFSSNQKNSLAWYQQKPGKAPKLLIYWASTRESGVPSRFSGSGSGTDFTLTISSLQPEDFATYYCQQYYTYPFTFGQGTKLEIK
notes: as for B1
B7: 3C3 heavy chain M / light chain Hu0 (antibody, V domains shown)
VH: EVQLQESGPGLTKPSQTLSLTCSVTGYSITSDYWDWIRKFPGNKLEYMGYISYTGSTYYNPSLRSRISITRDTSKNQYYLQLSSVTSEDSATYYCARRGGWLSPFVYWGQGTLVTVSA
VL: DIVMTQSPDSLAVSLGERATINCKSRQSLLFSSNQKNSLAWYQQKPGQPPKLLIYWASTRESGVPDRFSGSGSGTDFTLTISSLQAEDVAVYYCQQYYTYPFTFGQGTKLEIK
notes: as for B1
B8: 3C3 heavy chain Hu-B1 / light chain M (antibody, V domains shown)
VH: EVQLQESGPGLVKPSQTLSLTCTVSGYSITSDYWDWIRQPPGKGLEWMGYISYTGSTYYNPSLRSRITISRDTSKNQYSLKLSSVTAADTAVYYCARRGGWLSPFVYWGQGTLVTVSS
VL: DTVMSQSPSSLGVSVGERVTLTCKSRQSLLFSSNQKNSLAWYQQKPGQSPKLLIYWASTRESGVPDRFTGSGSGTDFTLTISSVKSEDLAVYYCQQYYTYPFTFGAGTSLELK
notes: as for B1
B9: 1G8 humanized antibody HuB2Hu2 (antibody, V domains shown)
VH: EVQLQESGPGLVKPSQTLSLTCTVSGYSITSDYWNWIRKPPGKGLEYMGYISYTGSTYYNPSLKSRITISRDTSKNQYSLKLSSVTAADTAVYYCARRGEWLSPFAYWGQGTLVTVSS
VL: DIVMTQTPLSLSVTPGQPASISCKSSQSLLYSSNQKNSLAWYLQKPGQSPQLLIYWASTRESGVPDRFSGSGSGTDFTLKISRVEAEDVGVYYCQQYYTYPFTFGQGTKLEIK
notes: Human IgG, kappa, from pTCAED vectors; also called 1G8 HuB2Hu2

Legend:
[1] = target: T1, PDL1-hFc (UniProt Q9NZQ7 19-238); assay: ELISA, PDL1-hFc coated 1 µg/ml, antibody supernatant at 300 ng/ml, anti-human Kappa HRP
T1 construct: Coated at 1 µg/ml in the ELISAs of the chimeric and humanized antibodies; construct not described
T1 sequence (Q9NZQ7 19-238): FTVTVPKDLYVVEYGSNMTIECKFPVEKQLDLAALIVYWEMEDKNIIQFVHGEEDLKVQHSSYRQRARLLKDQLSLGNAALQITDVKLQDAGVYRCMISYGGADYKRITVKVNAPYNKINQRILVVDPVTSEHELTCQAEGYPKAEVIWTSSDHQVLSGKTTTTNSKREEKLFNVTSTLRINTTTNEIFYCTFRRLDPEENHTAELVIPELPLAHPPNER
Protocol: The binding activity of humanized antibodies could be efficiently compared by all combination of heavy chains and light chains using mini scale antibody expression. The concentration of antibodies in culture supernatant was determent by anti-human IgG ELISA. For PDL1 ELISA, plates were coating with PDL1-hFc 1 μg/ml and blocked by 5% milk PBS. Assay antibodies were adjusted to 300 ng/ml, 100 μl/well. Anti-PDL1 signals were measured by secondary goat anti-human Kappa HRP IgG 1:4000 and color developed by TMB substrates (KPL). Optical absorption value was measured at OD450-655 nm by Bio-Rad ELISA reader.

[2] = target: T1, PDL1-hFc; assay: ELISA titration on PDL1-hFc 1 ug/ml, 45 nM to 2.7×10^-3 nM, one site-specific binding fit
Protocol: ELISA plates were coating with PDL1-hFc 1 ug/ml and blocked by 5% milk PBS, then add assay antibodies form 45 nM to 2.7×10⁻³ nM dilute (4× fold dilution). Assay will measured by add goat anti-human KAPPA HRP IgG 1:4000 and binding curve and KD was determined by GraphPad Prism software using One site-specific binding for none linear fit methods.

Row | Binder | OD450-650 nM, 300 ng/ml PDL1 binding [1] [OD] | Kd [2] [nM]
1 | B1 | 1.85 | –
2 | B2 | 1.52 | –
3 | B3 | 1.55 | –
4 | B4 | 0.539 | –
5 | B5 | 0.349 | –
6 | B6 | 0.455 | –
7 | B7 | 1.58 | –
8 | B8 | 0.61 | –
9 | B9 | – | 0.108
